Experimental data taken from publication doi:10.1101/2022.01.03.474807.

How the values were obtained:
[1] = biological target: human melanocortin-1 receptor (human) (UniProt Q01726)
[2] = biological target: human melanocortin-3 receptor (human) (UniProt P41968)
[3] = biological target: human melanocortin-4 receptor (human) (UniProt P32245)
[4] = biological target: human melanocortin-5 receptor (human) (UniProt P33032)
UniProt P33032, sequence (P33032 whole entry): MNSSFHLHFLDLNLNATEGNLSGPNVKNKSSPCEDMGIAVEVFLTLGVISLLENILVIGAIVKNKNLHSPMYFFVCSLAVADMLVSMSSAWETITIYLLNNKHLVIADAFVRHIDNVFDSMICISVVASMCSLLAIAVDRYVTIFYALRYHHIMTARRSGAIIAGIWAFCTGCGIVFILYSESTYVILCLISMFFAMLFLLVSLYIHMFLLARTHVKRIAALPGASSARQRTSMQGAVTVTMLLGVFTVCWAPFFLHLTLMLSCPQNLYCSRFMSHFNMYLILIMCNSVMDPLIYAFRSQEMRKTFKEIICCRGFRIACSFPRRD

UniProt Q01726, sequence (Q01726 whole entry): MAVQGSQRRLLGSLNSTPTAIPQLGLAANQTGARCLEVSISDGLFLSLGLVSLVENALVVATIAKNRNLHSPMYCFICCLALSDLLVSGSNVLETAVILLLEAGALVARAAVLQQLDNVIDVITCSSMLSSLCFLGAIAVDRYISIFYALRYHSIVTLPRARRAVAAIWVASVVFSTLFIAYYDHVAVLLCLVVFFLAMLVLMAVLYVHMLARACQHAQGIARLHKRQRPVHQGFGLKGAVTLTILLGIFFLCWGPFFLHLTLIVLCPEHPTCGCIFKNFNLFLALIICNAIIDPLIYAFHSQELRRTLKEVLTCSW
UniProt P32245, sequence (P32245 whole entry): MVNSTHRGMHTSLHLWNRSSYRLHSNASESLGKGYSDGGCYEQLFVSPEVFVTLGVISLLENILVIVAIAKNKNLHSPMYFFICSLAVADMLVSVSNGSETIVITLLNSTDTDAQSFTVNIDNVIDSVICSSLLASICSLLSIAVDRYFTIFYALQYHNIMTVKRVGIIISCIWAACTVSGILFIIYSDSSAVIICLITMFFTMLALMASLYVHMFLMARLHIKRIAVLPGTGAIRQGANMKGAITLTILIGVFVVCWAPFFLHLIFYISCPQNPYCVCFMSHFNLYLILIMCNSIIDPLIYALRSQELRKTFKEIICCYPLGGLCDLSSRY
UniProt P41968, sequence (P41968 whole entry): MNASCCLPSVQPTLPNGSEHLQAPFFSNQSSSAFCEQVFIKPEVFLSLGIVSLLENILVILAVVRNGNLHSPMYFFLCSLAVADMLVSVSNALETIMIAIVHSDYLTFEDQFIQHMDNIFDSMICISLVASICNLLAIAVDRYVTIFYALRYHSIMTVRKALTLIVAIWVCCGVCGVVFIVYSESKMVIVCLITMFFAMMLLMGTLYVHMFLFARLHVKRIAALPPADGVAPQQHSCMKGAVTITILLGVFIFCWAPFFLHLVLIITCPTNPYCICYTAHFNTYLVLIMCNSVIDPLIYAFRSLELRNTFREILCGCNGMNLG

## α-melanocyte-stimulating hormone (ligand)
[1]
  EC90 of the cAMP response (split-luciferase cAMP sensor): 0.01 µM
[2]
  EC90 of the cAMP response (split-luciferase cAMP sensor): 0.03 µM
[3]
  EC90 of the cAMP response (split-luciferase cAMP sensor): 0.07 µM
[4]
  EC90 of the cAMP response (split-luciferase cAMP sensor): 0.5 µM
